Reference: US8603987 (GALAXY BIOTECH, dated 2013)

Columns and labels:
[1] = biological target: T1, FGFR2IIIc on transfected human 293F cells (UniProt P21802 22-821); assay: flow cytometry on 293F cells transfected with FGFRIIIc
T1 construct: whole, on cells; also called FGFRIIIc
Procedure: (§1) Flow cytometry. After washing twice in cell sorting buffer (CSB: PBS/1% FBS/0.02% NaN_3), 2×10^5 cells were resuspended in 50 µl of CSB in a microtiter well and incubated with 50 µl of the anti-FGFR2 mAb to be tested (1 µg/50 µl) for 1 hr on ice. Cells were then washed twice in CSB and the bound antibodies detected by incubation with FITC-goat anti-mouse IgG (Jackson ImmunoResearch Laboratories) for 1 hr on ice. After washing twice in CSB, cells were analyzed on a FACScan (Becton Dickinson).
(§2) To confirm that the selected mAbs bind to the appropriate forms of FGFR2 on the cell membrane, flow cytometry was employed. KATO-III (ATCC HTB-103) and SNU-16 (ATCC CRL-5974) cells, which overexpress FGFR2IIIb, were used to test binding to that form of the receptor. […] Human 293F cells transfected with a gene for FGFRIIIc were used to test binding to that form, after verifying that none of the mAbs bind to the host 293F cells themselves. […] Finally, since the S252W mutation of FGFR2 is found in some cancer cells, binding of the mAbs to 293F cells transfected with an FGFR2IIIb gene constructed to contain that mutation (FGFR2IIIb(S252W)) was tested. As also seen in FIG. 7, all the mAbs bound to the FGFR2IIIb(S252W)-transfected cells. The ability to bind FGFR2IIIb(S252W) is a preferred property of mAbs of the invention.

[2] = biological target: T2, FGFR2IIIb on KATO-III and SNU-16 human gastric tumor cells (human, UniProt P21802-3 22-822); assay: flow cytometry on KATO-III and SNU-16 cells overexpressing FGFR2IIIb
T2 construct: whole, on cells; Endogenous receptor of human tumor cell lines; also called FGFR2IIIb on the cell membrane
Procedure: as §1, §2

[3] = biological target: T3, human FGFR2(beta)IIIb-Fc (amino acids 152-378, missing D1, fused to human Fc) (human, UniProt P21802-3 152-378); assay: ELISA on the four FGFR2-Fc forms, fixed mAb concentration
T3 construct: range 152-378; The signal peptide used for secretion of the beta form is not described; also called beta form of FGFR2IIIb; not shown: human Fc, residues 216 to 446
Procedure: ELISA assay for mAb binding to FGFR2 fusion protein. ELISA plates were coated with goat anti-human IgG-Fc (2 µg/ml) overnight at 4° C. Then nonspecific binding sites were blocked with 2% BSA for 1 hr at RT. Plates were incubated with one of the FGFR2 fusion proteins described above (1 µg/ml) for 1 hr, followed by incubation with various concentrations of mAbs or hybridoma culture fluids for 1 hr. The bound mAb was detected with HRP-Goat anti-mouse antibody followed by washing, addition of TMB substrate (Sigma) and reading at 450 nm. In all ELISA assays, plates were washed 3 times between each step.
Figure 3: FIG. 3. Binding ELISA of mAbs GAL-FR21, GAL-FR22 and GAL-FR23 and negative control mIgG to FGFR2IIIb. Figure 4: FIG. 4. Binding ELISA of mAbs GAL-FR21, GAL-FR22 and GAL-FR23 and negative control mouse mAb 5G8 to each of the four forms of FGFR2—FGFR2IIIb, FGFR2(beta)IIIb, FGFR2(IIIc) and FGFR2(beta)IIIc—as fusion proteins with Fc. A fixed concentration of each mAb was used in the assay.

[4] = biological target: T4, Chimpanzee FGFR2IIIb-Fc (human FGFR2IIIb ECD with residue 186 methionine to threonine, fused to human Fc) (chimpanzee; human, UniProt P21802-3 22-378); assay: ELISA, FGFR2IIIb-Fc captured by anti-human IgG-Fc
T4 construct: range 1-378; Built from the human FGFR2IIIb-Fc construct; also called chimp FGFR2IIIb; not shown: human Fc, residues 216 to 446
Procedure: (§3) To determine the ability of the mAbs to bind to FGFR2 from species other than human, ELISA assays were used. ELISA wells were coated with 2 µg/ml of goat anti-human IgG-Fc overnight at 4° C. After blocking with 2% BSA for 1 hr at RT, the wells were incubated with 0.2 µg/ml of FGFR2IIIb-Fc for 1 hr, where the FGFRIIIb in the fusion protein was either human, mouse, cynomolgus monkey or chimpanzee FGFRIIIb. The wells were then incubated with various concentrations of GAL-FR21 or GAL-FR22 mAb. The bound mAbs were detected by addition of HRP-conjugated goat anti-mouse IgG-Fc and then TMB substrate. […] A similar experiment with chimpanzee FGFR2 gave the same results as with cynomolgus monkey FGFR2: GAL-FR21 bound to chimpanzee FGFR2 as well as (indistinguishably from) human FGFR2, while GAL-FR22 bound to chimpanzee FGFR2 moderately well (within about 100-fold of human FGFR2). […] Binding to FGFR2 from such other species makes testing of the mAbs in those animal species easier to conduct.

[5] = biological target: T5, human FGFR2IIIb-Fc (alpha form, entire ECD amino acids 1-378 fused to human Fc) (human, UniProt P21802-3 22-378); assay: ELISA, FGFR2IIIb-Fc captured by anti-human IgG-Fc
T5 construct: range 1-378; Secreted from 293F cells and purified on protein A/G; not shown: human Fc, residues 216 to 446
Procedure: as §3

[6] = biological target: T6, FGFR2IIIb(S252W) on transfected human 293F cells (UniProt P21802-3 22-822); assay: flow cytometry on 293F cells transfected with FGFR2IIIb(S252W)
T6 construct: whole, on cells
Procedure: as §1, §2

[7] = biological target: T5, human FGFR2IIIb-Fc (alpha form, entire …); assay: estimate from the 50% inhibition point of the competition ELISA on FGFR2IIIb-Fc against biotinylated GAL-FR21
Procedure: To compare the binding affinity of HuGAL-FR21 with that of the mouse mAb GAL-FR21, a competitive binding experiment was performed using standard ELISA technology. Specifically, ELISA wells were coated with 2 μg/ml of goat anti-human IgG-Fc overnight at 4° C. After blocking with 2% BSA for 1 hr at RT, the wells were incubated with 0.5 μg/ml of FGFR2IIIb-Fc. The wells were then incubated with biotinylated GAL-FR21 mAb (0.05 μg/ml) in the presence of increasing concentrations of unlabeled GAL-FR21, HuGAL-FR21 or control human antibody hIgG. The level of biotinylated GAL-FR21 bound was determined by the addition of HRP-streptavidin and substrate. […] HuGAL-FR21 may also be tested in any of the biological assays for FGFR2 activity described herein, e.g., inhibition of binding of FGF2 or FGF7 to FGFR2, and will inhibit FGFR2 activity comparably to GAL-FR21.

T5 sequence (P21802 other isoform, or with tags, fused parts or gaps): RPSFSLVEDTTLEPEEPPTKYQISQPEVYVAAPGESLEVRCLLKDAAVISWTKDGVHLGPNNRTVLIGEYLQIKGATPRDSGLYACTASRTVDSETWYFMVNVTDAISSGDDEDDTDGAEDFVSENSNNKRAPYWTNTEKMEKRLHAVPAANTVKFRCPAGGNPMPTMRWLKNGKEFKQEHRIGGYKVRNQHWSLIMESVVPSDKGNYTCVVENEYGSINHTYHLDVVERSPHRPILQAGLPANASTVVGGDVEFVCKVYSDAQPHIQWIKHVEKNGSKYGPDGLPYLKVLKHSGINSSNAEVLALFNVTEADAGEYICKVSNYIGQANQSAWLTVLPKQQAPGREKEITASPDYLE
T2 sequence (P21802 other isoform, or with tags, fused parts or gaps): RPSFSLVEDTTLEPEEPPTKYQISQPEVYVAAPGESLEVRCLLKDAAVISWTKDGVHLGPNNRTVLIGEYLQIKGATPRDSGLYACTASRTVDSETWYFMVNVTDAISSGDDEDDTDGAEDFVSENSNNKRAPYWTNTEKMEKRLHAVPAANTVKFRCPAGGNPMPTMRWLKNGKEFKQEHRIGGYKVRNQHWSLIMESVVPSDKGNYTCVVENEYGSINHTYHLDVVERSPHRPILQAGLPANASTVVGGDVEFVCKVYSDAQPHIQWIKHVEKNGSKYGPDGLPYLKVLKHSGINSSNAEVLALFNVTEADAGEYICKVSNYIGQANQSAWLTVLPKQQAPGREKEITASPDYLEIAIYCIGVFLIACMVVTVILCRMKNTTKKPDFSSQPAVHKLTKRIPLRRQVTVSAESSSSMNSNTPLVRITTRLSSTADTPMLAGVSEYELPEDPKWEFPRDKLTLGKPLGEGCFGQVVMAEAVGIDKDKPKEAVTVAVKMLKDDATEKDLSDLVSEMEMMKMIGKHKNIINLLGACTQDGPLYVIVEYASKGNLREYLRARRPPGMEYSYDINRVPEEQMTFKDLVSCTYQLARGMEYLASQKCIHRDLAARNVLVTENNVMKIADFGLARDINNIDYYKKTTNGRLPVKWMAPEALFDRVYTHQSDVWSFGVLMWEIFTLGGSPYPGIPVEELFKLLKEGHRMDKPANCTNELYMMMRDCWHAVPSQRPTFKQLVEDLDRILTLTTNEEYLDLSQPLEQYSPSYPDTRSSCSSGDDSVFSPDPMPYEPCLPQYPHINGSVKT
T1 sequence (P21802 22-821): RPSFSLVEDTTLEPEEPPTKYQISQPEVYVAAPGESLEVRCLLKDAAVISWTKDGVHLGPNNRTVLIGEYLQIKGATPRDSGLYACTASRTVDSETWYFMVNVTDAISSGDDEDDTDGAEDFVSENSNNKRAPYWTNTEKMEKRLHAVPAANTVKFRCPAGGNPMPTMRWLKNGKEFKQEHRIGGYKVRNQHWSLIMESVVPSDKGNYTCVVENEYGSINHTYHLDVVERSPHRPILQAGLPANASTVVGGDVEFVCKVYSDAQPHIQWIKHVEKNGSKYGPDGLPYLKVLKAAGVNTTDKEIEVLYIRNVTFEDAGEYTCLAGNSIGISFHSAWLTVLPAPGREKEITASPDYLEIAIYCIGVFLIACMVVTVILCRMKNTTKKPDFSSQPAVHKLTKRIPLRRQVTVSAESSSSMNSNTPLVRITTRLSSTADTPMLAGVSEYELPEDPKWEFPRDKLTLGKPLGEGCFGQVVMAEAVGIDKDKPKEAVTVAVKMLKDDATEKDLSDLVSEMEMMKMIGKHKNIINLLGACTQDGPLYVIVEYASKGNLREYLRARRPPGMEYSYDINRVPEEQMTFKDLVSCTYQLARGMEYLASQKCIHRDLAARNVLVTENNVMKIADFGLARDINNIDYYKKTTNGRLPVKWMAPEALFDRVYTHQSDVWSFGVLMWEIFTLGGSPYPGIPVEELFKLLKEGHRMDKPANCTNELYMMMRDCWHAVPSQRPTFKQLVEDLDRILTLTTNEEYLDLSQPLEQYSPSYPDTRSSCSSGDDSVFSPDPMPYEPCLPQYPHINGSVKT
T3 sequence (P21802 other isoform, or with tags, fused parts or gaps): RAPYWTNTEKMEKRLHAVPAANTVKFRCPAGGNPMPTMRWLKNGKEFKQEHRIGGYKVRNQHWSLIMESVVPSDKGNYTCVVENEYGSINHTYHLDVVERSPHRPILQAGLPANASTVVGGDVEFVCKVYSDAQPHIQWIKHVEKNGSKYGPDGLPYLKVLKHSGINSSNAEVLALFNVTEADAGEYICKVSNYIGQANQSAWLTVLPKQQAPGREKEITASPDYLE
T4 sequence (P21802 other isoform, or with tags, fused parts or gaps): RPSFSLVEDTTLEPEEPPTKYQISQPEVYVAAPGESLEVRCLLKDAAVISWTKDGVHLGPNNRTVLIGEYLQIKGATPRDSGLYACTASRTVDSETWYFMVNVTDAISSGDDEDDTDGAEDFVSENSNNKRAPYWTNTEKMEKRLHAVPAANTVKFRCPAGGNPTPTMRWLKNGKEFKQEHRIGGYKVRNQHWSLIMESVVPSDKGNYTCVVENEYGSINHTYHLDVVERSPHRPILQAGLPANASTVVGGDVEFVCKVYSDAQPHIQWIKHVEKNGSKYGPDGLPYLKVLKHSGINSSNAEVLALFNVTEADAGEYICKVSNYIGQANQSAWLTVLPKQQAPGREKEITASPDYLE
T6 sequence (P21802 other isoform, or with tags, fused parts or gaps S252W S252W): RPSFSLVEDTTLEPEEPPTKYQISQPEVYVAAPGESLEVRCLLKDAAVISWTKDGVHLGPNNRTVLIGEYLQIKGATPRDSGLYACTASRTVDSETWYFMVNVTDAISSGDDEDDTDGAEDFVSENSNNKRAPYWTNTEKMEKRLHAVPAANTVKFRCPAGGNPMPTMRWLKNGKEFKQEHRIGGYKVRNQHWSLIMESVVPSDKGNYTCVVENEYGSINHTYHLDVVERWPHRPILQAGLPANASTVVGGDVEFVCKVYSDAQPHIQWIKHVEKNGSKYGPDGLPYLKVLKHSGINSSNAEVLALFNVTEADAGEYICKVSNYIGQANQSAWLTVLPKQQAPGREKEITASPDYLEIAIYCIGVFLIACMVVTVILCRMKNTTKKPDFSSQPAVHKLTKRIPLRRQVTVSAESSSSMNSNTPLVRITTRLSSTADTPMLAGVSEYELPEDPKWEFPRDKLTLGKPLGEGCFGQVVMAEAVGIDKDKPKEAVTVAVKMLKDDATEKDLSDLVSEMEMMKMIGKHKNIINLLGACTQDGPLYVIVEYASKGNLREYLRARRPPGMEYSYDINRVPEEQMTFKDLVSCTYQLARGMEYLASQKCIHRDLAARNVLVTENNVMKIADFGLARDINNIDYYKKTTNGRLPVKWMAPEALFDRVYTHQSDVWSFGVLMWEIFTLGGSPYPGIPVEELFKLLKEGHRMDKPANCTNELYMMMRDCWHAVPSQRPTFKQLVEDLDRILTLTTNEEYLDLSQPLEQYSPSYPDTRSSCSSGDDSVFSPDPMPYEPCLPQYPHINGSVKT

B1: GAL-FR21 (antibody, V domains shown)
VH: QVQLQQPGAEVVKPGASVKMSCKASGYIFTTYNVHWVKQTPGQGLEWIGSIYPDNGDTSYNQNFKGKATLTADKSSSTAYIQLSSLTSEDSAVYYCARGDFAYWGQGTLVTVSV
VL: NIVMTQSPKSMSMSVGDRVSITCKASQGVSNDVAWYQKKPGQSPKLLIYSASYRYTGVPDRFTGSGSGTDFTFTISNVQAEDLAVYYCQQHSTTPYTFGGGTKLEIK
notes: Mouse monoclonal antibody from a hybridoma; also called mouse GAL-FR21; ATCC PTA-9586
- binding result [1]: no binding (tested: 1 µg/50 µl)
- binding result [2]: binds
- binding result [3]: binds
- binding result [4]: binds
- binding result [5]: binds
- binding result [6]: binds

B2: GAL-FR22 (antibody, V domains shown)
VH: QVQLKQSGPGLVQPSQSLSITCTVSGFSLTSFGVHWVRQSPGKGLEWLGVIWSGGSTDYNADFRSRLSISKDNSKSQIFFKMNSLQPDDTAIYYCANFYYGYDDYVMDYWGQGTSVTVSS
VL: DIQMTQSPSSLSASLGGRVTITCKASQDIKNYIAWYQHKPGKSPRLLIHYTSTLQPGVPSRFSGSGSGRDYSFSISNLEPEDIATYYCLQYDDLYMFGGGTKLDIK
notes: Mouse monoclonal antibody from a hybridoma; also called GAL-FG22; ATCC PTA-9587
- binding result [1]: binds
- binding result [2]: binds
- binding result [3]: binds
- binding result [4]: binds
- binding result [5]: binds
- binding result [6]: binds

B3: HuGAL-FR21 (antibody, human IgG1, kappa, V domains shown)
VH: QVQLVQSGAEVKKPGSSVKVSCKASGYIFTTYNVHWVRQAPGQGLEWIGSIYPDNGDTSYNQNFKGRATITADKSTSTAYMELSSLRSEDTAVYYCARGDFAYWGQGTLVTVSS
VL: DIQMTQSPSSLSASVGDRVTITCKASQGVSNDVAWYQQKPGKAPKLLIYSASYRYTGVPSRFSGSGSGTDFTFTISSLQPEDIATYYCQQHSTTPYTFGQGTKLEIKR
notes: Humanized IgG1, kappa; also called humanized GAL-FR21
- Ka [7]: ≥ 1e+09 M⁻¹
